Laboratory results reported in publication PMC2706996.

Target: T1, rSsp2 SM101 (Clostridium perfringens SM101 (type A), UniProt P21886 1-59)
T1 sequence: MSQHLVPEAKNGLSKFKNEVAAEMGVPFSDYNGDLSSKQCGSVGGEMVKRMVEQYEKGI
Assay: EMSA; glutaraldehyde-fixed; preferred probe
Conditions: protein: recombinant; tags: His6; label: 3'-biotin; blunt

B1: GC-rich probe (69.1% GC), Label-D2/Label-R2 (dsDNA)
DNA 1: CTGGCGACTCAGAAGGGGCTCGAACCCTCGACCTCCGGCGTGACAGGCCGGCACT
DNA 2: AGTGCCGGCCTGTCACGCCGGAGGTCGAGGGTTCGAGCCCCTTCTGAGTCGCCAG
binding result: binds
